Data taken from patent publication US20240027454.

Key:
[1] = test system: T1, 4-([4-(H-Ala-Ala-Pro-Val-Ala)amido N-piperazino]phenyl)-bis-(4-dimethyl-aminophenyl)-carbenium ion
T1 sequence: AAPVX

[2] = test system: Fmoc-AAPF-aminoethyl-(Remazol Black B)-(N-acetyl)-ethylamide
[3] = test system: T2, AAPVA-RBB linked to poly-(N-acroyl-Boc-Lys-OH)-co-(acroyl-Cys(Trt)-OH)
T2 sequence: AAPVX

[4] = test system: T3, AAPVA-RBB linked to polymer, product of Step A of Example 62 after trifluoroacetic acid treatment
T3 sequence: AAPVX

CMC 9M31F-AAPF-RBB [5] = test system: CMC 9M31F-AAPF-RBB
CMC 9M31F-AAPFA-RBB [6] = test system: CMC 9M31F-AAPFA-RBB
CMC 9M31F-AAPFA-RBB [7] = target: CMC 9M31F-AAPFA-RBB; remark: listed apart in the source
[8] = target: Fmoc-AAPV-4-naphthol ester
H-AAAPM-RBB = target: T4, H-AAAPM-RBB
T4 chain: AAAPX

CMC 9M31F-AAPF-RBB [9] = target: CMC 9M31F-AAPF-RBB; remark: listed apart in the source
Fmoc-APV-Indoxyl ester = target: T5, Fmoc-APV-Indoxyl ester
T5 chain: APV

[10] = target: T6, Fmoc-F-V-T(Bzl)-F- indoxyl ester (not fully specified)
T6 chain: FVTF

[11] = target: Fmoc-AAPV-4-methoxy-1-naphthol ester
[12] = target: Fmoc-AAPF-aminoethyl-(Remazol Black B)-(N-acetyl)-ethylamide; remark: listed apart in the source
[13] = target: T7, Fmoc-AAPVAV-{2-hydroxy-3-[1-(5N-RBB-methyl)1,2,3-triazolyl)}propylamide
T7 chain: XAPVAX

[14] = target: HEC-EDA-N-propionyl-AAPF-RBB
[15] = target: AAPVA-RBB Bound to Paper Membrane
H-AAPFA-RBB = target: T8, H-AAPFA-RBB
T8 chain: AAPFX

Fmoc-AAA-indoxyl ester = target: T9, Fmoc-AAA-indoxyl ester
T9 chain: AAA

H-AAPVAA-RBB = target: T10, H-AAPVAA-RBB
T10 chain: AAPVAX

[16] = target: HEC-PEG200-N-propionyl-AAPF-RBB
[17] = target: T11, Non-bead-bound polymeric material of Example 67 (AAAPVV-RBB polyacrylamide quenched with ethanolamine) (not fully specified)
T11 chain: AAAPVX

[18] = target: T12, AAPVA-RBB linked to poly-(N-acroyl-Boc-Lys-OH)-co-(acroyl-Cys(Trt)-OH)
T12 chain: AAPVX

[19] = target: T13, N-[(3-triethoxysilyl)propyl]-N'-[AAAPVV-RBB]urea bound to silica gel (not fully specified)
T13 chain: XAAPVX

[20] = target: T14, AAPVA-RBB linked through ethylenediamine-glycyl spacer to polyacrylate (not fully specified)
T14 chain: AAPVX

[21] = target: Peptide-Labelled beadBALL Amine Microspheres with Long-Chain Linker (PEG(2000)-AAPV-RBB)
[22] = target: T15, AAAPV-RBB bound to Beads (Sephabeads ECEP, epoxy activated)
T15 chain: AAAPX

[23] = target: N-(Propionyl-AAPV-RBB)-Propylamino HEC
[24] = target: HEC-EDR176-N-Propionyl-AAPVA-RBB
[25] = target: T16, Poly-co-[(N-mercaptoethyl acrylamide)-(AAAPVV-{RBB}-acrylamide)], procedure a
T16 chain: AAAPVX

[26] = target: T17, AAPVA-RBB linked to polymer, product of Step A of Example 62 after trifluoroacetic acid treatment (not fully specified)
T17 chain: AAPVX

[27] = target: Fmoc-AAAPV-(N-acetyl)-indoxyl ester
[28] = target: T18, 4-([4-(H-Ala-Ala-Pro-Val-Ala)amido N-piperazino]phenyl)-bis-(4-dimethyl-aminophenyl)-carbenium ion polyacrylamide (not fully specified)
T18 chain: AAPVX

[29] = target: T19, AAAPVV-RBB linked through Jeffamine EDR 176 to polyacrylate quenched with N,N-dioctyl amine (not fully specified)
T19 chain: AAAPVX

[30] = target: T20, Poly-co-[(N-mercaptoethyl acrylamide)-(AAAPV-{RBB}-acrylamide)], procedure a (not fully specified)
T20 chain: AAAPX

[31] = target: T21, Poly-co-[(N-mercaptoethyl acrylamide)-(AAAPV-{RBB}-acrylamide)], procedure b
T21 chain: AAAPX

[32] = target: T22, AAAPVV-RBB on polyacrylate bound to Chemicell SiCore Amin beads
T22 chain: AAAPVX

[33] = target: Fmoc-AAPV-5-Bromo-4-Chloro-Indoxyl ester
[34] = target: T23, AAAPV-RBB polyacrylamide with N,N-dioctylamine anchors (not fully specified)
T23 chain: AAAPX

[35] = target: T24, AAAPVV-RBB on polyacrylate bound to SiCore Amin beads, procedure f
T24 chain: AAAPVX

[36] = target: T25, Poly-co-[(N-mercaptoethyl acrylamide)-(AAAPVV-{RBB}-acrylamide)], procedure b
T25 chain: AAAPVX

[37] = target: T26, AAAPVV-RBB polyacrylamide with N,N-dioctylamine anchors (not fully specified)
T26 chain: AAAPVX

[38] = target: T27, AAAPV-RBB linked through Jeffamine EDR 176 to polyacrylate quenched with N,N-dioctyl amine (not fully specified)
T27 chain: AAAPX

elastase
release of A-CV, MS-analysis [1]: Treatment of the material with elastase released A-CV, as found by MS-analysis (m/z=484, positive mode) | cleavage, product found by MS [2]: reaction with elastase to yield the mono-acetylated-Remazol Black B-amino derivative | release of Ala-RBB, MS-analysis [3]: Treatment with elastase released Ala-RBB, as found by MS-analysis (m/z=571, negative mode) | release of A-RBB, MS-analysis [4]: Treatment with elastase released A-RBB, as found by MS-analysis (m/z=571, negative mode) | release of the dye, ESI MS (CMC 9M31F-AAPF-RBB [5]): Reaction with elastase is detected using ESI MS to detect the release of the dye | release of Ahx-CV, MS-analysis (H-AAPV-Ahx-CV): Treatment of the product of Example 72 with elastase releases no Ahx-CV, as found by MS-analysis (no m/z=526, positive mode) | release of the dye, ESI MS (CMC 9M31F-AAPFA-RBB [6]): Reaction with elastase was detected using ESI MS to detect the release of the dye

B1: cathepsin G (protein)
chain: IIGGRESRPHSRPYMAYLQIQSPAGQSRCGGFLVREDFVLTAAHCWGSNINVTLGAHNIQRRENTQQHITARRAIRHPQYNQRTIQNDIMLLQLSRRVRRNRNVNPVALPRAQEGLRPGTLCTVAGWGRVSMRRGTDTLREVQLRVQRDRQCLRIFGSYDPRRQICVGDRRERKAAFKGDSGGPLLCNNVAHGIVSYGKSSGVPPEVFTRVSSFLPWIRTTMRS
Cathepsin Cleavage (CMC 9M31F-AAPFA-RBB [7]): ++ | Cathepsin Cleavage [8]: 0 | Cathepsin Cleavage (H-AAAPM-RBB): 0 | Cathepsin Cleavage (CMC 9M31F-AAPF-RBB [9]): ++ | Cathepsin Cleavage (H-AAPF-RBB): 0 | Cathepsin Cleavage (Fmoc-APV-Indoxyl ester): 0 | Cathepsin Cleavage [10]: 0 | Cathepsin Cleavage [11]: 0 | Cathepsin Cleavage (Fmoc-AAAA-Indoxyl ester): 0 | Cathepsin Cleavage (Fmoc-AAPV-(2-Napthol)): 0 | Cathepsin Cleavage (Fmoc-AAPF-Indoxyl ester): 0 | Cathepsin Cleavage [12]: 0 | Cathepsin Cleavage [13]: 0 | Cathepsin Cleavage [14]: + | Cathepsin Cleavage [15]: 0 | Cathepsin Cleavage (Fmoc-AAPA-Indoxyl ester): 0 | Cathepsin Cleavage (H-AAPFA-RBB): 0 | Cathepsin Cleavage (Fmoc-AAA-indoxyl ester): 0 | Cathepsin Cleavage (H-AAPVAA-RBB): 0 | Cathepsin Cleavage (Fmoc-AAAPM-RBB): 0 | Cathepsin Cleavage [16]: +

B2: human elastase from leucocytes (protein)
chain: IVGGRRARPHAWPFMVSLQLRGGHFCGATLIAPNFVMSAAHCVANVNVRAVRVVLGAHNLSRREPTRQVFAVQRIFENGYDPVNLLNDIVILQLNGSATINANVQVAQLPAQGRRLGNGVQCLAMGWGLLGRNRGIASVLQELNVTVVTSLCRRSNVCTLVRGRQAGVCFGDSGSPLVCNGLIHGIASFVRGGCASGLYPDAFAPVAQFVNWIDSIIQ
Human Elastase Cleavage [8]: + | Human Elastase Cleavage [17]: +++ | Human Elastase Cleavage [18]: + | Human Elastase Cleavage (H-AAAPM-RBB): + | Human Elastase Cleavage (Fmoc-AAAPV-3-Indolamide): ++ | Human Elastase Cleavage [19]: +++ | Human Elastase Cleavage [20]: + | Human Elastase Cleavage [21]: 0 | Human Elastase Cleavage (Fmoc-APV-Indoxyl ester): + | Human Elastase Cleavage [22]: 0 | Human Elastase Cleavage [23]: +++ | Human Elastase Cleavage [24]: +++ | Human Elastase Cleavage [10]: 0 | Human Elastase Cleavage [25]: +++ | Human Elastase Cleavage [26]: ++ | Human Elastase Cleavage [27]: ++ | Human Elastase Cleavage [11]: + | Human Elastase Cleavage [28]: 0(+) | release of A-CV, mass peak [28]: Treatment with porcine and human elastase releases A-CV, as proven by the appearance of a mass peak at m/z=484 | Human Elastase Cleavage [29]: + | Human Elastase Cleavage (Fmoc-AAAA-Indoxyl ester): 0 | Human Elastase Cleavage [30]: ++ | Human Elastase Cleavage [31]: ++ | Human Elastase Cleavage (Fmoc-AAPV-(2-Napthol)): + | Human Elastase Cleavage [32]: 0 | Human Elastase Cleavage [33]: +++ | Human Elastase Cleavage (Fmoc-AAPF-Indoxyl ester): + | Human Elastase Cleavage [34]: ++ | Human Elastase Cleavage (AAPV-RBB-Labelled Silica): ++ | Human Elastase Cleavage [35]: 0 | Human Elastase Cleavage (Fmoc-AAAPV-Indoxylester): ++ | Human Elastase Cleavage [36]: +++ | Human Elastase Cleavage (Fmoc-AAPA-Indoxyl ester): +++ | Human Elastase Cleavage (Fmoc-AAPV-Indoxyl ester): +++ | Human Elastase Cleavage (Fmoc-AAA-indoxyl ester): ++ | Human Elastase Cleavage [37]: +++ | Human Elastase Cleavage [38]: +
